First the molecules themselves.
T1: C. milii NCBD (nuclear coactivator binding domain of CBP), Trp variant, first four residues truncated (C. milii)
T1 chain: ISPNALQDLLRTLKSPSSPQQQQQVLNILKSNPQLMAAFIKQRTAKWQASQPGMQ

T2: D. rerio NCBD (nuclear coactivator binding domain of CBP), Trp variant (D. rerio)
T2 chain: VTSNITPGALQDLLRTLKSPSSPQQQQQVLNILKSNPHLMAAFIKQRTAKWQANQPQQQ

T3: H. sapiens NCOA1 N-CID-C (H_sapiens_NCOA1_N-CID-C_885-1004) (H. sapiens, UniProt Q15788 885-1004)
T3 construct: Gly-Ser remains at the N-terminus after thrombin cleavage; also called CID with flanking regions; Src1; not shown: His6, N-terminal, cleaved; lipo domain, N-terminal, cleaved
T3 sequence: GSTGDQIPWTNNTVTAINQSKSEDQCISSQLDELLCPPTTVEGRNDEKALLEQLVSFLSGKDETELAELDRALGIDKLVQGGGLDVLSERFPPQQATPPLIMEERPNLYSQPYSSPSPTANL

T4: S. purpuratus NCOA N-CID-C (CID with N- and C-terminal flanking regions) (S. purpuratus, UniProt A0A7M7N2F3 1037-1156)
T4 construct: Gly-Ser remains at the N-terminus after thrombin cleavage; the Uniprot entry W4YZZ7 was withdrawn; annotated in NCBI as neurogenic protein mastermind; also called long version; source: expression construct ordered from Genscript; not shown: 6 His-tagged lipo domain, N-terminal, cleaved
T4 sequence: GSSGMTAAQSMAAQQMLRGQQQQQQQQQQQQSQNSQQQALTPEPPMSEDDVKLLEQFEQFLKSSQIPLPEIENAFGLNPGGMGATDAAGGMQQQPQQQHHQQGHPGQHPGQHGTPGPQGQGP

B1: D. rerio NCOA2 N-CID-C (CID with N- and C-terminal flanking regions) (domain or fragment)
chain: GPGSPPNQTAPWPDSVMPIEPVPFGNQSSSMYGGSQEDVLCPPASEGPADEGALLSQLYSALKDFDGLEEIDRALGIPALVGQAQPVEQDQFPGQDPSMMMDQKPPMYGQQQYASSPANMQQAG
B2: C. milii NCOA3 N-CID-C (CID with N- and C-terminal flanking regions) (domain or fragment)
chain: QTTSWSDNVLQMEQVHSGGQGRQPFGGSLDDLLCPPTTAEAQSDEKALLDQLDTLLSNADEMGLEEIDRALGIPDLISQVQPLEAHADQFSVQDTALMLEQKAMYGQQFNSQAGPMQGCY
B3: H. sapiens CBP NCBD domain, Trp variant (H_sapiens_NCBD 2058-2116, Tyr2108 to Trp) (domain or fragment)
chain: GSPPRSISPSALQDLLRTLKSPSSPQQQQQVLNILKSNPQLMAAFIKQRTAKWVANQPGMQ
notes: Gly-Ser remains at the N-terminus after thrombin cleavage; Trp introduced at Tyr2108 for the kinetic studies; not shown: His6, N-terminal, cleaved; lipo domain, N-terminal, cleaved
B4: S. purpuratus NCBD (nuclear coactivator binding domain of CBP), wild type (domain or fragment)
chain: GSQRNNAPQQALQQLLQTLKSPHSPQQQKQVLTILKSNPQLMAAFIKQRSEHQQRMQQQQQ
notes: Gly-Ser remains at the N-terminus after thrombin cleavage; CBP, S. purpuratus (purple sea urchin), NCBD domain, residues 2316-2374 of Uniprot A0A7M7HNR9; the Trp variant is told only for the stopped-flow experiments; source: expression construct ordered from Genscript; not shown: 6 His-tagged lipo domain, N-terminal, cleaved
B5: H. sapiens NCOA1 CID (H_sapiens_NCOA1_CID_924-965) (domain or fragment)
chain: GSEGRNDEKALLEQLVSFLSGKDETELAELDRALGIDKLVQGGG
notes: Gly-Ser remains at the N-terminus after thrombin cleavage; also called Src1; not shown: His6, N-terminal, cleaved; lipo domain, N-terminal, cleaved
B6: D. rerio NCOA1 N-CID-C (CID with N- and C-terminal flanking regions) (domain or fragment)
chain: GSEPMTFDNSLANQTQAPLSSPQEQCVPCPLDEMLCPPTTPEGRNDEKALLEQLVTFLSHTDESELAELDRALGIDKIVQSGCLEPVTQTPFPQSQPPTPVPLDPKLPSYPSQFPTSPSQFP
B7: H. sapiens NCOA1 N-CID-C (CID with N- and C-terminal flanking regions) (domain or fragment)
chain: T3 sequence
notes: Gly-Ser remains at the N-terminus after thrombin cleavage; also called NCOA1 (Src1); source: expression construct ordered from Genscript; not shown: 6 His-tagged lipo domain, N-terminal, cleaved
B8: D. rerio NCOA3 N-CID-C (CID with N- and C-terminal flanking regions) (domain or fragment)
chain: GSPPQSPSWPDSGMGMEGPPSANRLPINSPLDELLAPPSTSEGQSDERALLDQLDSLLNNTDVIALEEIDRALGIPDLINQGHSSDQPPPSDPFSGPCLGPDSSMGMEPPKAMYGQGYPGPP

Experiment [1] has as its target C. milii CBP NCBD domain, Trp variant (C_milli_NCBD 2031-2089) (Callorhinchus milii). Put plainly: stopped-flow spectroscopy; Trp variant of NCBD of the same species mixed with CID or N-CID-C; kon from the slope of kobs against CID concentration; koff from displacement of the complex by an excess of wild-type NCBD (average of three experiments); Kd = koff/kon; 20 mM sodium phosphate pH 7.40, 150 mM NaCl, 4 °C; double exponential fit for human and C. milii NCOA3, the high kobs used for Kd.

Experiment [2] has as its target S. purpuratus NCBD (nuclear coactivator binding domain of CBP), wild type (S. purpuratus). The experiment is described as follows: ITC; MicroCal iTC200, 25 °C, 20 mM sodium phosphate pH 7.40, 150 mM NaCl.
In experiment [3] the target is T1, C. milii NCBD (nuclear coactivator …).
The target of experiment [4] is D. rerio CBP NCBD domain, Trp variant (D_rerio_NCBD 2064-2122) (Danio rerio). The experiment is described as follows: stopped-flow spectroscopy; Trp variant of NCBD of the same species mixed with CID or N-CID-C; kon from the slope of kobs against CID concentration; koff from displacement of the complex by an excess of wild-type NCBD (average of three experiments); Kd = koff/kon; 20 mM sodium phosphate pH 7.40, 150 mM NaCl, 4 °C; double exponential fit for human and C. milii NCOA3, the high kobs used for Kd.

The target of experiment [5] is T2, D. rerio NCBD (nuclear coactivator …).
The target of experiment [6] is T3, H. sapiens NCOA1 N-CID-C …. Put plainly: stopped-flow spectroscopy; Trp variant of NCBD of the same species mixed with CID or N-CID-C; kon from the slope of kobs against CID concentration; koff from displacement of the complex by an excess of wild-type NCBD (average of three experiments); Kd = koff/kon; 20 mM sodium phosphate pH 7.40, 150 mM NaCl, 4 °C; double exponential fit for human and C. milii NCOA3, the high kobs used for Kd. The note with it: both partners purified.

The target in experiment [7] is T4, S. purpuratus NCOA N-CID-C (CID with N- …). Put plainly: ITC; MicroCal iTC200, 25 °C, 20 mM sodium phosphate pH 7.40, 150 mM NaCl. The note with it: both partners purified. (In general: In ITC the heat of successive injections is recorded.)
For experiment [8], the target named is H. sapiens NCBD (nuclear coactivator binding domain of CBP), Trp variant (H. sapiens, UniProt Q92793 2058-2116, a Trp was introduced at the position corresponding to Tyr2108 in human NCBD).
The target of experiment [9] is B3. Put plainly: stopped-flow spectroscopy; Trp variant of NCBD of the same species mixed with CID or N-CID-C; kon from the slope of kobs against CID concentration; koff from displacement of the complex by an excess of wild-type NCBD (average of three experiments); Kd = koff/kon; 20 mM sodium phosphate pH 7.40, 150 mM NaCl, 4 °C; double exponential fit for human and C. milii NCOA3, the high kobs used for Kd. The conditions noted are these: both partners purified.

Experiment [10] concerns the target T5, H. sapiens NCBD (nuclear coactivator binding domain of CBP), Trp variant (H. sapiens, UniProt Q92793 2058-2116, a Trp was introduced at the position corresponding to Tyr2108 in human NCBD).
T5 construct: Gly-Ser remains at the N-terminus after thrombin cleavage; also called human NCBD; Trp variant of NCBD; source: expression construct ordered from Genscript; not shown: 6 His-tagged lipo domain, N-terminal, cleaved
The experiment is described as follows: stopped-flow spectroscopy; Trp variant of NCBD mixed with CID at varied concentration; kon from the slope of kobs, koff from displacement with excess wild-type NCBD, Kd = koff/kon; 20 mM sodium phosphate pH 7.40, 150 mM NaCl, 4 °C. The conditions noted are these: both partners purified.

For “C. milii NCOA3 CID (C_milli_NCOA3_CID_1076-1117) (domain or fragment)”, in [1], the Kd (as a rule, the free concentration of one partner at which half of the binding sites on the other are occupied at equilibrium, for simple one-to-one binding) turned out to be 260 nM and the koff – broadly, a measure of how fast the partners let go of each other – worked out at 6.53 s⁻¹.
Regarding “S. purpuratus NCOA CID (minimal region) (domain or fragment)”, the Kd in [2] was determined as 5000 nM.
As to “C. milii NCOA3 N-CID-C (C_milli_NCOA3_N-CID-C_1037-1156) (domain or fragment)”, in [1], the Kd is 88 nM and the koff came out at 3.78 s⁻¹.
With EAQSDEKALLDQLDTLLSNADEMGLEEIDRALGIPDLISQVQ (domain or fragment) [C. milii NCOA3 CID (minimal region)], binding in [3] was put at a Kd of 260 nM.
Consider B1, for which, in experiment [4], the Kd was 81.9 nM and the koff was 3.51 s⁻¹. For the same molecule, the Kd in experiment [5] was found to be 82 nM.
On to B2, for which binding in experiment [3] was characterised by a dissociation constant (Kd) of 88 nM.
In experiment [6], B3 yielded a Kd of 6.02 nM and a koff of 0.436 ± 0.0476 s⁻¹.
In the case of B4, the Kd in experiment [7] stood at 8000 nM.
Molecule B5 yielded a Kd in experiment [8] of 56 nM. Moreover, in [9], the Kd was 55.7 nM and the koff was determined as 1.59 ± 0.153 s⁻¹.
In [4], B6 displayed a Kd of 14.7 nM and a koff of 0.716 s⁻¹. In experiment [5], this molecule registered a Kd of 15 nM.
The like results for GSEGQSDERALLDQLDSLLNNTDVIALEEIDRALGIPDLINQGH (domain or fragment) [D. rerio NCOA3 CID (minimal region)] were, in that order, 300 nM, 7.29 s⁻¹ and 300 nM.
For the molecule B7, the “fold increase in affinity with flanking regions against the CID without them” value in experiment [10] stood at 9 fold. For the same molecule, the Kd in experiment [8] amounted to 6 nM.
For the molecule GPGSASEGPADEGALLSQLYSALKDFDGLEEIDRALGIPALVGQAQ (domain or fragment) [D. rerio NCOA2 CID (minimal region)], the Kd in [4] is 146 nM; in experiment [5], 150 nM. In [4], this molecule displayed a koff of 5.06 s⁻¹.
The like results for GSEGRNDEKALLEQLVTFLSHTDESELAELDRALGIDKIVQSGC (domain or fragment) [D. rerio NCOA1 CID (minimal region)] were, in that order, 44.1 nM, 44 nM and 1.54 s⁻¹.
The like results for B8 were, in that order, 168 nM, 170 nM and 5.34 s⁻¹.
